First the molecules themselves.
B2: recombinant HINT1 protein (natural protein, mouse, UniProt P70349 1-126, looked up)
chain: MADEIAKAQVAQPGGDTIFGKIIRKEIPAKIIFEDDRCLAFHDISPQAPTHFLVIPKKHISQISVADDDDESLLGHLMIVGKKCAADLGLKRGYRMVVNEGADGGQSVYHIHLHVLGGRQMNWPPG
notes: HINT1, coding region of NM_008248, amplified from mouse brain RNA; also called PKCI/HINT1; source: E. coli BL21 (KRX), purified (GSTrap FF; when necessary cleaved with ProTEV and electroeluted)

Holding throughout (conditions): both partners purified
One assay concerns the target T1, recombinant σ1R (murine, UniProt O55242 1-223).
T1 construct: murine full-length (1-223) σ1R, GenBank AF004927; Used as prey; also called sigma 1 receptor; source: E. coli BL21 (KRX), purified (GSTrap FF; when necessary cleaved with ProTEV and electroeluted)
Description: pull-down; bait (GST-NR1 C0-C1-C2 or GST-MOR) covalently attached to NHS-activated Sepharose; σ1R 100 nM in 50 mM Tris-HCl pH 7.4, 0.2% CHAPS, 30 min RT; 0 mM CaCl2; Western blot. (Immunoblotting shows a protein as a band on a membrane.)

For assay [1], the target named is B2. Description: pull-down; displacement assay: HINT1 200 nM preincubated with agarose-NR1 or agarose-MOR in 50 mM Tris-HCl pH 7.5, 2.5 mM CaCl2, 0.2% CHAPS at RT; free HINT1 removed; σ1R added (100 nM, 300 nM or 1 uM on NR1; 300 nM on MOR); Western blot of bound HINT1 and σ1R.
For the next assay, the target named is T2, GST-σ1R (murine, UniProt O55242 1-223).
T2 construct: murine full-length (1-223) σ1R, GenBank AF004927, cloned downstream of GST and a TEV protease site; also called GST-tagged σ1 receptor; source: E. coli BL21 (KRX), purified (GSTrap FF); not shown: GST, N-terminal, kept
T2 sequence (O55242 whole entry): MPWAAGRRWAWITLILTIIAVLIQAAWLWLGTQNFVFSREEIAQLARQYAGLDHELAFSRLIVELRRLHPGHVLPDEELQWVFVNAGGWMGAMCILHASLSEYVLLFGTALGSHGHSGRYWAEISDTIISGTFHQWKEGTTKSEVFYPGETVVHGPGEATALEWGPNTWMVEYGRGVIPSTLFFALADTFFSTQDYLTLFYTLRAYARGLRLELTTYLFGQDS
The assay can be described thus: pull-down; HINT1 protomer 200 nM with GST fusion protein 100 nM in 50 mM Tris-HCl pH 7.4, 2.5 mM CaCl2, 0.2% CHAPS, 30 min RT; captured on glutathione Sepharose 4B; Western blot.

The source of these data is PMC4742118, “The ON:OFF switch, σ1R-HINT1 protein, controls GPCR-NMDA receptor cross-regulation: Implications in neurological disorders” (Oncotarget, 2015).

T1 sequence (O55242 whole entry): as above

B1: GST-MOR (domain or fragment, mus musculus, UniProt P42866 286-398, looked up)
chain: VAVFIVCWTPIHIYVIIKALITIPETTFQTVSWHFCIALGYTNSCLNPVLYAFLDENFKRCFREFCIPTSSTIEQQNSARIRQNTREHPSTANTVDRTNHQLENLEAETAPLP
notes: C-terminal region of mus musculus MOR1 (AB047546), residues 286-398; the methods speak of MOR Ct; also called GST-tagged MOR; MOR Ct; source: E. coli BL21 (KRX), purified (GSTrap FF); not shown: GST, N-terminal, kept
As to B1, the binding result (with recombinant σ1R; in assay [1]) was “binds” each time.
B2: the binding result with GST-σ1R was “binds”.
